Test results reported in IntAct's records for PubMed 23376921.

B1: Transmembrane protein 59 (Homo sapiens), Q9BXS4 (parent)
chain: MAAPKGSLWVRTQLGLPPLLLLTMALAGGSGTASAEAFDSVLGDTASCHRACQLTYPLHTYPKEEELYACQRGCRLFSICQFVDDGIDLNRTKLECESACTEAYSQSDEQYACHLGCQNQLPFAELRQEQLMSLMPKMHLLFPLTLVRSFWSDMMDSAQSFITSSWTFYLQADDGKIVIFQSKPEIQYAPHLEQEPTNLRESSLSKMSYLQMRNSQAHRNFLEDGESDGFLRCLSLNSGWILTTTLVLSVMVLLWICCATVATAVEQYVPSEKLSIYGDLEFMNEQKLNRYPASSLVVVRSKTEDHEEAGPLPTKVNLAHSEI
B2: Transmembrane protein 59 (Homo sapiens), Q9BXS4 (parent)
chain: B1 chain
partner: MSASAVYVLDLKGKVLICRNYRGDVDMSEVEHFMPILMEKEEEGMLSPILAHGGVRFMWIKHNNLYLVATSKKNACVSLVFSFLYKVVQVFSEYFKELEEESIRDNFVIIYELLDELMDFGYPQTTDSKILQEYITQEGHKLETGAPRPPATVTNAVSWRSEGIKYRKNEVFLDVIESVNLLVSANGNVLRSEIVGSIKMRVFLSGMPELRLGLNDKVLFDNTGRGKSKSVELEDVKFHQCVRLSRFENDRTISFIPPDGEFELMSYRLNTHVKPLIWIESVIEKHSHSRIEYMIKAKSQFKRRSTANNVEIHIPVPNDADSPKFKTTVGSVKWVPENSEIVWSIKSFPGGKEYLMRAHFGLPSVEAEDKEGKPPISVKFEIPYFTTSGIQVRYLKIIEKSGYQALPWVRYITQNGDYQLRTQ

Variants of: B1
Conditions: with ATG16L1, Q676U5
Chain of ATG16L1, Q676U5 (Q676U5 whole entry): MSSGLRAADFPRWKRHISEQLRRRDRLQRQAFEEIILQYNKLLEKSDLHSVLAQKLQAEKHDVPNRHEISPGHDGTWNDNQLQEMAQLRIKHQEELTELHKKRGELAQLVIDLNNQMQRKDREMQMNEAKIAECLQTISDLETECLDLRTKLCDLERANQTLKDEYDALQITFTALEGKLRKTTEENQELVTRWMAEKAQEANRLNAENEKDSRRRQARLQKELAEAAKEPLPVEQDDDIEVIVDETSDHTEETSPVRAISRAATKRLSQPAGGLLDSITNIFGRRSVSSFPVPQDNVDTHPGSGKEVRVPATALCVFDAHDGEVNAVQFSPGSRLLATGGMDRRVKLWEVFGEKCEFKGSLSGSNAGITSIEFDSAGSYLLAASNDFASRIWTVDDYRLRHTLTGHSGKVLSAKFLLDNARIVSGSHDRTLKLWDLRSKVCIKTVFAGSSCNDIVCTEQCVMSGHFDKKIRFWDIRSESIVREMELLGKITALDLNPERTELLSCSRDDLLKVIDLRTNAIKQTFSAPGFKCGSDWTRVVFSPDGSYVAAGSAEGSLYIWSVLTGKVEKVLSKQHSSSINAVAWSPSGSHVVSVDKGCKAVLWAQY

Row | effect of a mutation on the interaction | Variant
1 | disrupting interaction | Y268A;E272A;Y277A;L280A

Variants of: B1
Conditions: with ATG16L1, Q676U5
Remark: another data set of the same source

Row | effect of a mutation on the interaction | Variant
2 | disrupting interaction | Y268A;E272A;Y277A;L280A

Variants of: B1
Conditions: with ATG16L1, Q676U5
Remark: another data set of the same source

Row | effect of a mutation on the interaction | Variant
3 | disrupting interaction | Y268A;E272A;Y277A;L280A

Variants of: B1
Conditions: with ATG16L1, Q676U5
Remark: another data set of the same source

Row | effect of a mutation on the interaction | Variant
4 | disrupting interaction | Y268A;E272A;Y277A;L280A

Variants of: B1
Conditions: with ATG16L1, Q676U5
Remark: another data set of the same source

Row | effect of a mutation on the interaction | Variant
5 | disrupting interaction | Y268A;E272A;Y277A;L280A

Variants of: B1
Conditions: with ap2m1_human AP2M1, Q96CW1
Chain of ap2m1_human AP2M1, Q96CW1 (Q96CW1 whole entry): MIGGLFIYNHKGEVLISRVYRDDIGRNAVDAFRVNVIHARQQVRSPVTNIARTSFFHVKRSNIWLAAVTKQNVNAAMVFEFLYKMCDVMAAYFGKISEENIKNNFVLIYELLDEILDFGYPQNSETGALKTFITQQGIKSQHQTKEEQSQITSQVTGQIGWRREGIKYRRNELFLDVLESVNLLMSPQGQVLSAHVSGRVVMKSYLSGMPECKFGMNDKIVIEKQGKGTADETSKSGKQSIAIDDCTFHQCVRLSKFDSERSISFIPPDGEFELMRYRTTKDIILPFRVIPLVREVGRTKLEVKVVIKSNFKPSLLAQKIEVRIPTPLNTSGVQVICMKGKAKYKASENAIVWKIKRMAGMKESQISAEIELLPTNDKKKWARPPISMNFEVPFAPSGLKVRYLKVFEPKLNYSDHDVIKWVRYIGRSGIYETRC

Row | effect of a mutation on the interaction | Variant
6 | disrupting interaction | Y268A;E272A;Y277A;L280A

Variants of: B1
Conditions: with mlp3a_human MAP1LC3A

Row | effect of a mutation on the interaction | Variant
7 | disrupting interaction | Y268A;E272A;Y277A;L280A

Variants of: B1
Conditions: with ATG16L1, Q676U5
Remark: another data set of the same source

Row | effect of a mutation on the interaction | Variant
8 | disrupting interaction | Y277A;L280A

Variants of: B2
Conditions: with ap1m1_human AP1M1, Q9BXS5

Row | effect of a mutation on the interaction | Variant
9 | disrupting interaction | Y268A;E272A;Y277A;L280A
